# Data published in patent US20090214427A1 (LICENTIA, published 2009).
# Positions of bridges follow the written chain, without caps; N, C: chain ends. No end group written: not given here.
# B1: synthetic peptide HK2p06 (CYRMPTCMQRD) (peptide)
# peptide: CYRMPTCMQRD
# modifications: disulfide 1-7 (inferred)
# notes: Two Cys residues, said to indicate a cyclic structure
# B2: phage carrying peptide HK2p06 as part of pIII protein (peptide)
# chain: CYRMPTCMQRD
# modifications: disulfide (positions not given here); also: displayed as fusion to phage pIII protein
# notes: also called phage p06; HK2p06 phage clone (X11 library); not shown: pIII coat protein of fUSE-5 filamentous phage
# B3: phage carrying peptide HK2p03 as part of pIII protein (peptide)
# chain: PARRPFPVTA
# notes: also called phage p03; HK2p03 phage clone (X10 library); not shown: pIII coat protein of fUSE-5 filamentous phage
# B4: phage carrying peptide HK2p04 as part of pIII protein (peptide)
# chain: CFRQGCWVIT
# modifications: disulfide (positions not given here); also: displayed as fusion to phage pIII protein
# notes: also called phage p04; HK2p04 phage clone (X10 library); not shown: pIII coat protein of fUSE-5 filamentous phage
# B5: phage carrying peptide HK2p02 as part of pIII protein (peptide)
# chain: AARRPFPAPS
# notes: also called phage p02; HK2p02 phage clone (X10 library); not shown: pIII coat protein of fUSE-5 filamentous phage
# Experiments:
# [1] = biological target: T1, recombinant wild-type (wt) human kallikrein 2 (human, UniProt P20151 25-261); experiment: competition phage IFMA on hK2 captured by MAb 5E4; 5 µM synthetic peptide
# T1 construct: Enzymatically active hK2; in phage assays captured on wells by MAb 5E4, in enzyme assays in solution; also called hK2; HK2
# Procedure: The phage IFMA was performed essentially as described (Wu, Leinonen et al. 2000). In this assay, 50 ng of hK2 in 200 μL of assay buffer was captured onto wells coated with MAb 5E4. After washing, 2.5 μL of phage (10⁸-10⁹ infectious particles) and 200 μL assay buffer were added to wells. After incubation for 1 h, the wells were washed and filled with 200 μL of assay buffer containing 100 ng Eu-labeled anti-phage polyclonal antibody recognizing the M13 coat protein of the phage. After incubation for 60 min, the wells were washed 4 times, and enhancement solution (Perkin Elmer-Wallac) was added. The fluorescence was quantified with a Victor fluorometer in time resolved mode (Perkin Elmer-Wallac).
# The relative binding sites of the peptides on hK2 were mapped by competition experiments with chemically synthesized and phage peptides. The protocol was based on the IFMA method described above except that phages and the synthetic peptides were reacted together with hK2. Briefly, each of the synthetic peptides at 5 μM concentration was added into the wells in which hK2 had been captured by MAb 5E4. After incubation for 30 min each phage was added. After 1 h incubation, the wells were washed and the assay was as described above for IFMA.
# [2] = biological target: T1, recombinant wild-type (wt) human …; experiment: phage display selection on hK2 captured by MAb 5E4, four rounds
# Procedure: The phage display libraries were constructed in fUSE-5-phage as previously described (Koivunen et al. 1994). We screened libraries with the structures CX₇C, CX₈C, X₉, X₁₀, X₁₁, CX₃CX₃CX₃C, CX₈, CX₉, X₂CX₁₁C, where C stands for cysteine and X for any of the randomly occurring amino acids. Screening was performed according to Koivunen et al. (Koivunen et al. 1994). We screened each peptide library against hK2, which was captured by MAb 5E4 coated into microtiter wells (Wu, Leinonen et al. 2000). MAb 5E4 binds PSA and hK2 in an equimolar manner and reacts with an epitope which is remote from the active site of these enzymes (Stenman et al. 1999), (Leinonen, Wu et al. 2002). Twenty four ng of hK2 was incubated in antibody-coated wells for 30 minutes at 37° C. in Tris/NaCl buffer followed by washing of unbound hK2. An aliquot of phage libraries containing 10¹⁰-10¹¹ transducing units was added into the microtiter wells in 100 μL of 1% BSA in TBS, which was composed of 0.05 mol/L Tris buffer (pH 7.7) containing 0.154 mol/L NaCl and 8 mmol/L NaN3. Incubation took place at 4° C. with gentle shaking for 16-24 hours in the first round and for 1 hour for the following three rounds. The phages were removed and wells were washed with TBS containing 0.5% Tween 20. For elution of the bound phage 0.1 M Glycine-HCl, pH 2.2 containing 0.1% BSA was added. The eluted phage suspension was neutralized with 1 M Tris buffer, pH 9.0, amplified by infection of Escherichia coli K91 cells and purified by polyethylene glycol precipitation (Wu, Leinonen et al. 2000). After four rounds of selection and amplification single stranded DNA from individual phage clones was prepared. The peptide sequences were determined after amplification by PCR (Koivunen et al. 2001). The relevant part of the viral DNA was sequenced with an ABI 310 Genetic analyzer and Dye Terminator Cycle Sequencing Core Kit (PE Applied Biosystems, Foster City, Calif., USA) using the primer 5′-TAATACGACTCACTATAGGGCAAGCTGATAAACCGATACAAT-3′ (SEQ ID NO: 130).
# [3] = biological target: T1, recombinant wild-type (wt) human …; experiment: cell-based or functional assay
# [4] = biological target: T1, recombinant wild-type (wt) human …; experiment: cell-based or functional assay; remark: listed apart in the source
# [5] = biological target: T1, recombinant wild-type (wt) human …; experiment: Lineweaver-Burke plots; cleavage of 0-400 µM S-2302 by 0.2 µM hK2 at 4 µM peptide
binder,measurement,setting,value
B1,binding result,[1],binds
B2,binding result,[2],binds
SRFKVWWAAG [synthetic peptide HK2p01 (SRFKVWWAAG)],IC50 for hK2 inhibition (cleavage of S-2302),[3],3400 nM
B3,binding result,[2],binds
B4,binding result,[2],binds
ARFKVWWAAG (S1A variant of HK2p01) [ARFKVWWAAG (SEQ ID NO:56)],inhibition,[4],94%
same,Ki,[5],1410 nM
same,IC50 for hK2 inhibition (cleavage of S-2302),[3],2200 nM
B5,binding result,[2],binds
